Assay [1] deals with T1, recombinant NDPK (Homo sapiens, UniProt P15531).
T1 construct: purchased Acro Biosystems NM1-H5147
Kind of assay: Recombinant kinase activity assay, NDPK (ADP-Glo/Kinase-Glo). The following applies: recombinant NDPK plus the added component. The format is biochemical. The procedure: (§1) An on-bead kinase assay was developed to measure the activity of endogenous NDPK and ADK pulled down from serum using a-Ab or c-Ab conjugated beads. Both NDPK and ADK are bi-directional kinases that will produce ATP or ADP depending on the substrates provided (FIGS. 4B-C). Kinase activity assays were performed in 384-well plates in reaction buffer (PBS with 0.1% BSA, 0.01% F-127, 5 mM MgCl2). Experiments with recombinant proteins were performed at final concentrations of 40 μg/ml for ADK and FABP4, and 20 ug/ml for NDPK, and a reaction volume of 10 μl. Antibodies were used at a final concentration of 80 ug/ml. Substrates were added in equimolar ratios depending on the kinase being assayed and the direction of the reaction in serial dose responses, with the highest concentration of 5 μM. Proteins and substrates were incubated for 1 hr at room temperature, and ADP and ATP production were monitored using ADP-Glo and Kinase-Glo kits, respectively, according the manufacturer instructions (V6930 and V6711 Promega, USA). Luminescence was quantified using a SpectraMax Paradigm plate reader 30 min after the addition of substrate. Consistent with the MS results, ADK activity, as measured by generation of ATP, was specifically observed in samples pulled down with a-Ab but not c-Ab (FIG. 5A). […] To test this possibility, the ATP and ADP generating activity of recombinant ADK was assessed in the presence of the proposed complex components.

The target in assay [2] is T2, Human NDPK-A (Homo sapiens, UniProt P15531).
T2 construct: purchased Acro Biosystems NM1-H5147
T2 sequence (P15531 whole entry): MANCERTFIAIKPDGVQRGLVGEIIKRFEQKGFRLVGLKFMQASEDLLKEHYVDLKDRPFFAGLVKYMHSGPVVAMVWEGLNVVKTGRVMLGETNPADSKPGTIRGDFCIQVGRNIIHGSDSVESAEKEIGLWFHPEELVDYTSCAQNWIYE
In words: Microscale Thermophoresis (MST) one-to-one protein interaction with NDPK. The following applies: recombinant proteins, binding to NDPK. The procedure:
Additionally, one-to-one recombinant protein interaction assays were performed using Microscale Thermophoresis (MST) to independently validate the interactions between each of the proposed complex components. MST is a technology for the interaction analysis of biomolecules. MST is the directed movement of particles in a microscopic temperature gradient. Any change of the hydration shell of biomolecules due to changes in their structure/conformation results in a relative change of the movement along the temperature gradient and is used to determine binding affinities. MST allows measurement of interactions directly in solution without the need of immobilization to a surface (immobilization-free technology).
To perform this technique, proteins were desalted and buffer exchanged into PBS prior to labeling. […] Experiments were conducted independently with each of NDPK and ADK labeled with each kit (i.e., experiments were performed with lysine-labeled, cysteine-labeled, and His-labeled versions of each protein to confirm the site of labeling was not influencing detected interaction). […] Concentration of labeled proteins ranged from 12 nM to 20 nM, as determined by MST quantification to obtain a fluorescence intensity of ˜350 from each capillary tube. […]
(In general: Microscale thermophoresis detects binding through changes in fluorescence in a small temperature gradient.)

Assay [3] addresses T3, recombinant ADK (Homo sapiens, UniProt P55263).
T3 construct: purchased Novus Biologicals or R&D Systems NBP1-44382 or 8024-AK-025
In words: Recombinant kinase activity assay, ADK (Kinase-Glo). The format is biochemical. The following applies: recombinant ADK plus the added component. On the procedure:
as §1
A general note: Kinase-Glo measures the ATP left after a reaction by luminescence.

In assay [4] the test system is WT NOD mice. Kind of assay: Acute FABP4 administration. The following applies: 20 minutes post-injection, vs vehicle-injected controls. The format is in vivo, mouse. The procedure: (§2) Given the essential role for appropriate beta cell function and insulin secretion in the pathogenesis of diabetes, the pancreata of FABP4 deficient (FABP4^−/−) mice were examined for beta cell mass and insulin content. Animal care and experimental procedures were performed with approval from animal care committees of Harvard University. All mice were housed on a 12-hour light/dark cycle with ad libitum access to chow (PicoLab 5058 LabDiet) and water. FABP4−/− and WT mice were littermates obtained from heterozygous breeding. High fat diet (HFD) fed mice were provided ad libitum access to HFD (60% kcal from fat; Research Diets Inc., D12492i) for 14 weeks beginning at 4 weeks of age. Pancreata and isolated islets were obtained from 7-8-week-old male mice. Blood was collected every other week for 6 hour fasting plasma insulin and FABP4 levels. For acute FABP4 treatment, 10 μg of human recombinant FABP4 (produced in-house) or sterile PBS was injected intraperitoneally. Blood was collected from the tail vein at 0, 10, 20, 30, 60, 120, 240- and 360-minutes post injection for measurement of blood glucose, plasma insulin, and FABP4 levels.

In assay [5] the test system is WT mice. Kind of assay: Acute FABP4 administration. Format: in vivo, mouse. The following applies: 20 minutes post-injection, vs vehicle-injected controls. On the procedure: as §2
Assay [6] relates to primary mouse islets. Kind of assay: Glucose-stimulated insulin secretion (GSIS), mouse islets. Format: cell-based. On the procedure:
Primary islet isolation from mice was performed as previously described (Batchuluun et al., 2018; Prentice et al., 2014) and GSIS was assessed following acute treatment with NDPK-ADK in the presence or absence of FABP4. Insulin secretion assays were performed as previously described (Prentice et al., 2014). For primary islets, 20 islets were hand-picked into 1.5 ml tubes, washed twice with Krebs Ringer Buffer (KRB) without glucose, and pre-incubated in 500 μl low glucose (LG; 2.8 mM) KRB for 1 hour at 37° C. KRB was then removed and 250 μl of fresh LG KRB added. Islets were incubated for 20 minutes at 37° C. Supernatant was collected and 250 μl high glucose (HG; 16.7 mM) KRB added. Islets were incubated for 20 minutes at 37° C. In conditions where KCl was used, HG KRB was collected, and 250 μl KC1 (16.7 mM glucose, 30 mM KCl) KRB added. Islets were incubated for 20 minutes at 37° C., and supernatant collected. Following the stimulation protocol, cells were lysed in 100 μl acid ethanol (70% ethanol, 1% HCl in water) and stored at 4° C. overnight. Samples were evaporated using a SpeedVac until dried, and resuspended in 60 μl ultrapure water. DNA was quantified by Nanodrop (ThermoFisher, USA). Insulin from supernatant was quantified using insulin HTRF (Insulin Ultrasensitive Assay kit 62IN2PEH; Cisbio, USA).

By Kd is commonly meant the constant that tells how readily two partners part at equilibrium.

T1 sequence (P15531 whole entry): as above

B1: ADK: recombinant human adenosine kinase (Novus Biologicals or R&D Systems) (protein, listed as Homo sapiens)
chain: MAAAEEEPKPKKLKVEAPQALRENILFGMGNPLLDISAVVDKDFLDKYSLKPNDQILAEDKHKELFDELVKKFKVEYHAGGSTQNSIKVAQWMIQQPHKAATFFGCIGIDKFGEILKRKAAEAHVDAHYYEQNEQPTGTCAACITGDNRSLIANLAAANCYKKEKHLDLEKNWMLVEKARVCYIAGFFLTVSPESVLKVAHHASENNRIFTLNLSAPFISQFYKESLMKVMPYVDILFGNETEAATFAREQGFETKDIKEIAKKTQALPKMNSKRQRIVIFTQGRDDTIMATESEVTAFAVLDQDQKEIIDTNGAGDAFVGGFLSQLVSDKPLTECIRAGHYAASIIIRRTGCTFPEKPDFH
Consider B1, for which, in assay [1], the “activity of NDPK to generate ADP” value is reported as “significantly reduced” and the “capacity of NDPK to produce ATP” value is recorded as “no effect”. The Kd in assay [2] was roughly 1.8 nM.

B2: FABP4: human recombinant FABP4 (produced in-house) (protein)
chain: CDAFVGTWKLVSSENFDDYMKEVGVGFATRKVAGMAKPNMIISVNGDVITIKSESTFKNTEISFILGQEFDEVTADDRKVKSTITLDGGVLVHVQKWDGKSTTIKRKREDDKLVVECVMKGVTSTRVYERA
Regarding B2, the “ADK activity to generate ATP” value in assay [3] is listed as “significantly increased”. Further, in assay [1], the “activity of NDPK to generate ADP” value is on record as “not further influenced” and the “capacity of NDPK to produce ATP” value is on record as “no effect”. Moreover, in assay [4], the plasma insulin result is on record as “significant reduction”. Besides, the blood glucose levels result in assay [5] is given as “significantly increased”. Moreover, in assay [6] (primary / WT mouse islets), the GSIS result is on record as “no effect”. In assay [6] (primary mouse islets, added to NDPK-ADK), the “NDPK-ADK-enhanced GSIS response” value is “significantly blunted”.

(Values after US20230203142A1, “TREATMENT OF METABOLIC DISORDERS THROUGH THE TARGETING OF A NOVEL CIRCULATING HORMONE COMPLEX” (The President and Fellows of Harvard College, priority 2020, published 2023).)
